Biological target: HA-tagged human GABARAP [human]
Test: co-immunoprecipitation (anti-HA IP), immunoblot quantification
Details: 2 h, RAW 264.7 LRRK2 KO cells, read off a plot

response (DMSO, parent: 1) [A.U.] | response (DMXAA 100 µg/mL, parent: 3.5) [A.U.] | Substance
1.1 | 1.7 | Halo-tagged human LRRK2 (WT) mutant W875A; I878A [human] / HA-tagged human GABARAP [human] chain 1 W875A, chain 1 I878A
0.25 | 0.9 | Halo-tagged human LRRK2 (WT) mutant W109A; L112A [human] / HA-tagged human GABARAP [human] chain 1 W109A, chain 1 L112A
0.4 | 0.85 | Halo-tagged human LRRK2 (WT) mutant W109A; L112A; W875A; I878A [human] / HA-tagged human GABARAP [human] chain 1 W109A, chain 1 L112A, chain 1 W875A, chain 1 I878A

— article PMC11734622
